Results published in PMC11079029 (2024).

Target: PRPF40A WW12 (tandem WW domains, residues 141-236) (human, UniProt O75400 141-236)
Test: ITC

Chain of PRPF40A WW12 (tandem WW domains, residues 141-236) (O75400 141-236): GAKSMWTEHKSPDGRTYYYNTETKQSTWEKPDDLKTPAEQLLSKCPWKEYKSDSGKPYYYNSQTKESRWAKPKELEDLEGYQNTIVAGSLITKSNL

GAMSGSPPPPPPPPPPSGSN [GB1-polyproline peptide P10]
Kd: 28.6 µM

GAMSGSPPPPPPPPPPPPPPPPSGSN [GB1-tagged polyproline peptide P16]
Kd: 3.35 µM
